The target in the test is mouse GCG-R (in pancreatic islets of mice) (mouse) (UniProt Q61606). The test can be described thus: cell-based or functional assay.
Sequence of mouse GCG-R (in pancreatic islets of mice) (mouse) (Q61606 27-485): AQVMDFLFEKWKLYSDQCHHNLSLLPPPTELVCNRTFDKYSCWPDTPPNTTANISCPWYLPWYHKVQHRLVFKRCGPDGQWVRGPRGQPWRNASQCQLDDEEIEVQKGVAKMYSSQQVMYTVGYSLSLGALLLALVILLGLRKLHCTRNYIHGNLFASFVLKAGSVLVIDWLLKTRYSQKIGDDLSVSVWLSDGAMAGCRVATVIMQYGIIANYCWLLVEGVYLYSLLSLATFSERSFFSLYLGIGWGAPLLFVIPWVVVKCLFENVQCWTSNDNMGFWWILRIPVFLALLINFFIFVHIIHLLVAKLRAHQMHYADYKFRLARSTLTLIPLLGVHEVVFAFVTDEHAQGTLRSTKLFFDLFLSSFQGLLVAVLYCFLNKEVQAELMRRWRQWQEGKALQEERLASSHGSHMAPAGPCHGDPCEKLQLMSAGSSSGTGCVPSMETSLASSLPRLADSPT

In turn, “native OXM peptide (species not stated, Example 11)” gave a fold-increase in fractional GSIS, GCG-R-/- islets relative to WT of 32 % reduction.

Values taken from patent US20110183902A1.
